Reference: patent US20260193333A1, “METHODS OF INHIBITING FIBRIL GROWTH” (University of Tennessee Research Foundation, priority 2023, published 2026)

B1: amyloid-reactive peptide p5R (peptide)
peptide: RAQRAQARQARQAQRAQRAQARQARQ
B2: amyloid-reactive humanized antibody (VH SEQ ID NO:55 / VL SEQ ID NO:36) (antibody, V domains shown)
VH: QVQLQESGPGLVKPSETLSLTCTVSGFSLSSYGVSWIRQPPGKGLEWLGVIWGEGSTNYHPNLMSRVTISVDTSKSQVLFKLSSVTAADTAVYYCATLDYWGQGTSVTVSS
VL: DVVMTQSPLSLPVTLGQPASISCRSSQSLVHRSGNTYLHWFQQRPGQSPRLLIYKVSNRFSGVPDRFSGSGSGTDFTLKISRVEAEDVGVYFCFQTTYVPNTFGGGTKLEIK

Columns and labels:
rVλ6WIL fibrils = experiment: rVλ6WIL (WIL) fibril extension assay with biotinylated rVλ6WIL monomer; assay type: biochemical; conditions: for % Change (at 2 μM) in rVλ6WIL fibril extension: at 2 μM sample, 20 nM Biotin-WIL, blocking agent BSA, compared to control sample
Procedure: A WIL fibril extension assay was developed for analyzing in vitro amyloid fibril formation using biotinylated WIL monomers.
First, a high binding 96-well ELISA plate was coated with 0.83 μM sonicated rVλ6WIL synthetic fibrils ([…]). The fibrils were then dried in a 37° C. oven. Subsequently, the plate was washed twice with wash buffer (PBS+0.05% tween 20). The plate was then blocked with […] of 1% BSA in PBS for 1 hour at 37° C. The blocking buffer was then removed and the plate was washed twice with wash buffer. For positive control wells, 100 mL of 20 nM biotinylated rVλ6WIL monomer (biotinylated with EZ-link Sulfo-NHS-biotin (ThermoFisher Scientific) following their protocol) in 1% BSA+0.05% tween 20 in PBS (BSAT) was added per well. For test wells, 100 mL of a mix of 20 nM biotinylated rVλ6WIL monomer plus an amyloid-reactive peptide, an amyloid-reactive antibody, or an amyloid-reactive antibody-peptide fusion protein (2, 0.5, 0.05, 0.01, 0.005 and 0.001 […]) in BSAT was added per well. Background control wells (containing no fibrils) contained […] of 20 nM biotinylated rVλ6WIL monomer in BSAT added to them. The microplate was then incubated for 1 hour at 37° C. The plate was then washed twice with wash buffer. 100 mL of a 1:1000 dilution of europium-labeled streptavidin (Perkin Elmer) in BSAT was then added into each well and incubated for 1 hour at 37° C. Next, the plate was washed 3× with wash buffer. To quantify amyloid fibril formation, […] of enhancement solution (Perkin Elmer) was added to each well and time-resolved fluorescence emission was measured in each well.
The methods of Example 1 were carried out in the presence of the amyloid reactive peptide p5R, an amyloid-reactive antibody-peptide fusion protein, an amyloid-reactive humanized antibody, or a control.
Assay conditions included the following: 20 nM biotinylated WIL monomer, 1 hour incubation using BSA as a blocking agent, and 50 μL/well of 10 μg/mL fibrils (0.83 μg).

[1] = biological target: rVλ6WIL synthetic fibrils; experiment: fibril extension assay: 20 nM biotin-WIL monomer binding to plate-coated rVλ6WIL fibrils in the presence of 2 µM sample, BSA block, europium-streptavidin

Row | Molecule | % Change (at 2 μM) in rVλ6WIL fibril extension (rVλ6WIL fibrils) | rVλ6WIL fibril extension in the presence of the peptide (rVλ6WIL fibrils; concentrations between 0.001 μM to 2.0 μM, FIGS. 2A, 2B) | % Change (at 2 µM) of rVλ6WIL fibril extension against control [1] | extension of rVλ6WIL fibrils in the presence of the antibody (rVλ6WIL fibrils; beginning at a concentration of 0.01 μM, FIGS. 4A, 4B) | concentration at which significant attenuation of rVλ6WIL fibril extension begins (rVλ6WIL fibrils; tested 0.001 to 2 μM) | concentration of maximum level of rVλ6WIL fibril extension inhibition (rVλ6WIL fibrils; tested 0.001 to 2 μM)
1 | Amyloid reactive peptide p5R: amyloid-reactive peptide p5R, SEQ ID NO: 2, RAQRAQARQARQAQRAQRAQARQARQ (RAQRAQARQARQAQRAQRAQARQARQ) | +12% | insufficient to inhibit rVλ6WIL fibril extension |  |  |  | 
2 | B1 |  |  | 12% |  |  | 
3 | B2 | −89% |  | -89% | significantly attenuated | 10 nM | 2000 nM
